Laboratory results from the Human Domainome abundance scans (Beltran et al. 2025).
± gives the uncertainty stated by the source.

B1: Proto-oncogene vav, residues 782 to 842; numbered along this chain, P15498 (parent)
chain: KYFGTAKARYDFCARDRSELSLKEGDIIKILNKKGQQGWWRGEIYGRVGWFPANYVEEDYS

Variants of: B1
Experiment: abundance fitness (aPCA) (normalised: wild type 0, dead -1); higher = more abundant; growth selection in yeast, the domain comes from the species named
Conditions: Homo sapiens

Abundance fitness: each site, then its substitutions
Y45: P -0.211 ± 0.072; N 0.081 ± 0.074; S 0.164 ± 0.047; W -0.101 ± 0.068; L 0.036 ± 0.043; A 0.106 ± 0.056; V -0.074 ± 0.052; G 0.125 ± 0.044; D 0.147 ± 0.079; M 0.1 ± 0.06; K 0.115 ± 0.065; E 0.103 ± 0.065; F 0.085 ± 0.17; H 0.135 ± 0.15; T -0.021 ± 0.053; Q 0.169 ± 0.066
W39: H -0.513 ± 0.2; I -0.408 ± 0.098; L -0.268 ± 0.055; F -0.354 ± 0.097; A -0.614 ± 0.15; S -0.599 ± 0.08; T -0.385 ± 0.078; P -0.807 ± 0.12; Q -0.317 ± 0.079; E -0.795 ± 0.27; G -0.978 ± 0.17; N -0.674 ± 0.15; M -0.028 ± 0.07; R -0.241 ± 0.049
V48: K -0.071 ± 0.1; E -0.07 ± 0.05; A -0.156 ± 0.045; M -0.312 ± 0.1; P -0.733 ± 0.12; C -0.194 ± 0.074; L -0.347 ± 0.086; W -0.491 ± 0.076; S -0.062 ± 0.059; D -0.499 ± 0.11; H -0.405 ± 0.14; T 0.071 ± 0.069; Y -0.177 ± 0.12
K34: H -0.03 ± 0.11; L -0.268 ± 0.065; D -0.054 ± 0.17; N 0.068 ± 0.15; C -0.117 ± 0.11; E 0.068 ± 0.1; S -0.05 ± 0.085; P -0.165 ± 0.079; A -0.013 ± 0.077; Y -0.216 ± 0.16; G -0.051 ± 0.07; F -0.363 ± 0.31; V -0.072 ± 0.075; R 0.019 ± 0.043; M -0.22 ± 0.1; T -0.158 ± 0.094; Q 0.031 ± 0.072; I -0.424 ± 0.17
G42: I -0.832 ± 0.33; Q -0.963 ± 0.35; D -0.385 ± 0.21; R -0.398 ± 0.081; P -0.916 ± 0.26; F -1.02 ± 0.4; A -0.523 ± 0.11; Y -0.618 ± 0.26; S -0.787 ± 0.12; L -0.788 ± 0.11; T -0.825 ± 0.16; V -0.837 ± 0.14; E -0.809 ± 0.26; M -0.748 ± 0.15
I44: N 0.085 ± 0.17; M -0.292 ± 0.1; T -0.027 ± 0.095; G -0.619 ± 0.096; Q -0.484 ± 0.16; L 0.089 ± 0.075; C 0.042 ± 0.087; D -0.486 ± 0.16; W -0.556 ± 0.12; V 0.044 ± 0.062; Y -0.425 ± 0.17; H -0.025 ± 0.21; P -0.556 ± 0.14; R -0.145 ± 0.062; A 0.062 ± 0.069; K -0.239 ± 0.16; F -0.257 ± 0.24
E43: T -0.367 ± 0.084; A -0.197 ± 0.086; K -0.155 ± 0.14; M -0.389 ± 0.12; C -0.343 ± 0.1; V -0.411 ± 0.073; F -0.825 ± 0.47; G -0.702 ± 0.12; R -0.31 ± 0.076; S -0.126 ± 0.07; D -0.559 ± 0.17; L -0.525 ± 0.086; Q -0.019 ± 0.12; Y -0.682 ± 0.16; H -0.993 ± 0.42; W -0.782 ± 0.16; N -0.36 ± 0.17
Q36: C -0.258 ± 0.13; A -0.07 ± 0.094; L -0.045 ± 0.064; E -0.005 ± 0.077; N -0.248 ± 0.22; K 0.132 ± 0.1; M 0.055 ± 0.085; I -0.084 ± 0.11; G -0.192 ± 0.066; W -0.156 ± 0.094; P 0.074 ± 0.092; H 0.016 ± 0.15; Y -0.219 ± 0.11; F -0.166 ± 0.15; D -0.073 ± 0.18; S -0.195 ± 0.084; T -0.076 ± 0.088
G49: T -0.506 ± 0.19; V -0.902 ± 0.32; F -0.87 ± 0.26; R -0.998 ± 0.27; N -0.956 ± 0.41; L -1.01 ± 0.29; K -0.92 ± 0.36; S -0.618 ± 0.14; A -0.433 ± 0.2; C -0.83 ± 0.49; P -0.776 ± 0.2; M -0.907 ± 0.45; D -0.956 ± 0.33; Q -0.838 ± 0.29
R47: P -0.86 ± 0.12; G -0.628 ± 0.081; A -0.268 ± 0.051; M -0.393 ± 0.16; Q -0.065 ± 0.069; H -0.226 ± 0.087; T -0.313 ± 0.12; Y -0.503 ± 0.089; V -0.367 ± 0.049; N -0.276 ± 0.14; W -0.841 ± 0.11; S -0.297 ± 0.053; L -0.493 ± 0.043; F -0.788 ± 0.16; D -0.3 ± 0.09; K -0.051 ± 0.16
W50: T -0.645 ± 0.17; K -0.559 ± 0.15; F -0.678 ± 0.24; Q -0.516 ± 0.15; M -0.387 ± 0.12; V -0.452 ± 0.098; S -0.584 ± 0.11; I -0.739 ± 0.23; N -0.329 ± 0.14; A -0.649 ± 0.17; Y -0.17 ± 0.11; L -0.341 ± 0.069; D -0.493 ± 0.15; R -0.596 ± 0.092; G -0.699 ± 0.11; E -0.603 ± 0.17
Q37: N -0.086 ± 0.22; T -0.135 ± 0.11; E 0.033 ± 0.12; H 0.037 ± 0.11; S 0.02 ± 0.071; A -0.044 ± 0.075; Y 0.048 ± 0.11; D -0.008 ± 0.12; R -0.048 ± 0.063; K -0.022 ± 0.22; V -0.024 ± 0.069; L -0.106 ± 0.056; G 0.029 ± 0.11; W -0.189 ± 0.12; P 0.039 ± 0.088; M -0.105 ± 0.12; I -0.292 ± 0.14; C -0.02 ± 0.097; F -0.186 ± 0.094
L31: M -0.366 ± 0.11; Q -0.525 ± 0.25; R -0.461 ± 0.094; W -0.251 ± 0.11; V -0.285 ± 0.092; N -0.649 ± 0.18; T -0.133 ± 0.085; P -0.988 ± 0.42; S -0.618 ± 0.11; Y -0.188 ± 0.17
G46: Q -0.291 ± 0.082; C -0.784 ± 0.17; N -0.15 ± 0.098; H -0.672 ± 0.16; M -0.896 ± 0.12; D -0.19 ± 0.098; L -0.67 ± 0.07; W -0.853 ± 0.1; P -0.387 ± 0.061; K -0.516 ± 0.12; Y -1.01 ± 0.29; A -0.731 ± 0.09; S -0.343 ± 0.067; E -0.311 ± 0.063; I -0.766 ± 0.16; R -0.671 ± 0.061; T -0.542 ± 0.069; F -0.942 ± 0.14; V -0.748 ± 0.073
G38: E -0.438 ± 0.17; D -0.265 ± 0.11; N -0.309 ± 0.16; C -0.725 ± 0.23; T -0.69 ± 0.14; L -0.55 ± 0.11; V -0.51 ± 0.1; M -0.795 ± 0.23; H -0.418 ± 0.18; K -0.248 ± 0.18; F -0.82 ± 0.29; W -0.928 ± 0.31; A -0.619 ± 0.12; Q -0.186 ± 0.14; I -0.911 ± 0.25; R -0.539 ± 0.11; P -0.944 ± 0.25
K33: R -0.089 ± 0.051; F -0.593 ± 0.14; E -0.46 ± 0.15; I -0.44 ± 0.15; D -0.743 ± 0.2; Y -0.475 ± 0.12; G -0.734 ± 0.11; P -0.41 ± 0.12; H -0.68 ± 0.35; C -0.732 ± 0.17; Q -0.478 ± 0.19; L -0.929 ± 0.16; T -0.377 ± 0.11; N -0.681 ± 0.2; S -0.576 ± 0.092; W -0.693 ± 0.11; A -0.711 ± 0.12; V -0.41 ± 0.068; M -0.804 ± 0.23
R41: F 0.081 ± 0.091; M 0.024 ± 0.078; W -0.123 ± 0.12; G -0.691 ± 0.11; E 0.018 ± 0.085; P -0.588 ± 0.14; N -0.375 ± 0.15; C -0.002 ± 0.098; Q 0.129 ± 0.073; H -0.113 ± 0.12; K 0.008 ± 0.08; S -0.359 ± 0.084; I -0.463 ± 0.12; A -0.364 ± 0.07; L 0.031 ± 0.049; T -0.633 ± 0.13
W40: E -0.924 ± 0.28; Q -0.876 ± 0.46; C -0.833 ± 0.23; G -0.707 ± 0.084; D -0.747 ± 0.23; L -0.306 ± 0.077; P -0.876 ± 0.46; S -0.785 ± 0.14; A -1.13 ± 0.26; K -0.362 ± 0.35; V -0.648 ± 0.083; M -0.428 ± 0.14; Y -0.182 ± 0.14; I -0.385 ± 0.24; R -0.948 ± 0.19; F -0.303 ± 0.21
G35: N -0.327 ± 0.24; W -0.6 ± 0.12; S -0.104 ± 0.07; V -0.412 ± 0.076; E -0.165 ± 0.072; I -0.334 ± 0.15; M -0.324 ± 0.15; C -0.165 ± 0.093; H -0.428 ± 0.13; Q -0.304 ± 0.13; D -0.155 ± 0.08; K -0.204 ± 0.11; T -0.16 ± 0.11; P -0.23 ± 0.12; L -0.469 ± 0.075; Y -0.643 ± 0.14; R -0.287 ± 0.064; A -0.346 ± 0.086
F51: G -0.838 ± 0.1; M -0.905 ± 0.15; L -0.813 ± 0.088; D -0.951 ± 0.3; A -0.984 ± 0.27; R -0.78 ± 0.12; E -0.913 ± 0.25; P -0.733 ± 0.19; I -0.691 ± 0.25; Q -0.759 ± 0.19; C -0.859 ± 0.18; N -0.489 ± 0.33
N32: A -0.031 ± 0.075; S 0.082 ± 0.062; G -0.075 ± 0.07; T -0.131 ± 0.1; Y -0.168 ± 0.17; E 0.123 ± 0.11; V -0.223 ± 0.078; Q 0.009 ± 0.12; M -0.242 ± 0.11; F -0.118 ± 0.092; L -0.292 ± 0.066; R -0.255 ± 0.063; D 0.162 ± 0.098; H -0.02 ± 0.15; K -0.221 ± 0.12; I -0.363 ± 0.22
